The record followed here is PMC11147780, “Vaccination induces broadly neutralizing antibody precursors to HIV gp41” (Nature Immunology, 2024).

As a reminder, the Kd is the free concentration of one partner at which half of the binding sites on the other are occupied at equilibrium, for simple one-to-one binding. A higher Kd goes with weaker binding.

For this assay, the target named is T1, 10E8-GT10.2 epitope scaffold (designed scaffold 10E8-GT10.2 with …, N-linked glycosylation sites added (positions not given)).
T1 chain: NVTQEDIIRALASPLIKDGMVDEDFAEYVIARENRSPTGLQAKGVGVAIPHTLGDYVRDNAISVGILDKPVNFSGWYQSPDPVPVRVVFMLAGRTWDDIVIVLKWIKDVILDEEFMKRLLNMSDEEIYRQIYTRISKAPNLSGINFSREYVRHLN

Where a chain is given by its changes, count along the chain named.

B1: NHP-10E8_MPER-GT10v55_W21-01 (antibody, V domains shown)
VH: EVRLVESGGGLVQPGGSLRLSCAASGFTFSDYYMSWVRQAPGKGPEWVGFIRNKANGGTAEYAASVKGRFTISRDDSKSIASLQMNSLKTEDTAVYYCARAPLHYNFWSGYYTDYGLDSWGQGVVVTVSS
VL: DIVMTQSPDSLAVSLGERVTINCKSSQSLLYSSNNKNYLAWYQQKPGQAPKLLIYWASTRESGVPNRFSGSGSGSDFTLTISGLQAEDVAVYYCQQYYSTPHSFGQGTKVEIK
Regarding B1, the Kd was 6750 nM.

B2: MPER18_d21_45.1_v55_m3_F03 (antibody, V domains shown)
VH: EVQLQQSGPVLVKPGPSLKISCKASGFTITDYYMHWVKQTHGKSLAWIGLLYPYNGGTSYNQKFKGKATLTVDTSSSTAYMELNSLTSDDSAVYYCAREGHYDRKGYFDVWGTGTTVTVSS
VL: DIVMTQSHKFMSTSVGDRVSITCKASQDVSTAVAWYQQKPGQSPKLLIYWASTRHTGVPDRFTGSGSGTDYTLIISSVQAEDLALYYCQQHYSIPFTFGSGTKLEIK
In turn, B2 yielded a dissociation constant (Kd) of 31.2 nM.

B3: MPER-051 (antibody, V domains shown)
VH: QVQLVESGGGLVKPGGSLRLSCAASGFTFSDYYMSWIRQAPGKGLEWVSYISSSGSTIYYADSVKGRFTISRDNAKNSLYLQMNSLRAEDTAVYYCASLAHTYYDFWSGYYDRYYGMDVWGKGTTVTVSS
VL: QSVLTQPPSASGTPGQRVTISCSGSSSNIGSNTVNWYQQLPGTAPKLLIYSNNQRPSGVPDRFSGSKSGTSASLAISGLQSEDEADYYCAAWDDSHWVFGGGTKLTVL
Regarding B3, the Kd is 13000 nM. This Kd lies about 420-fold higher than the previous one.

B4: NHP-10E8_MPER-GT10v55_W3-18 (antibody, V domains shown)
VH: EVQLVESGGGLVQPGGSLRLSCAASGFTFSDYAMDWVRQAPGKGLEWVGYIRSKDYGGTAEYAASVKGRLTISRDDSKNTAYLQMNSLKTEDTAVYYCSRGRGYYHFWSGYYTPYNRFDVWGPGVLVTVSS
VL: DVVMTQSPLSLPVTPGQPASISCRSSQSLVHSDGKTYLNWLQQKPGQPPRRLIYQVSNRDSGVPDRFSGSGAGTDFTLKISRVEAEDVGVYYCVQGTNVPWTFGQGTKVEIK
As to B4, the Kd was 1.16 nM.

B5: MPER-052 (antibody, V domains shown)
VH: EVQLVESGGGLVQPGRSLRLSCTASGFTFGDYAMSWVRQAPGKGLEWVGFIRSKAYGGTTEYAASVKGRFTISRDDSKSIAYLQMNSLKTEDTAVYYCTRDLMGYYDFWSGYYRGHYGMDVWGKGTTVTVSS
VL: AIQMTQSPSSLSASVGDRVTITCRASQGIRNDLGWYQQKPGKAPKLLIYAASSLQSGVPSRFSGSGSGTDFTLTISSLQPEDFATYYCLQDYNYPLTFGGGTKVEIK
B5: the affinity, expressed as Kd, was 4100 nM.

B6: MPER18_d21_45.2_v55_15 (antibody, V domains shown)
VH: QVQLQESGPGLVKPSETLSLTCTVSGGSISSYSWSWIRQPPGKGLEWIGYISYSGSTNYNPSLKSRVTISVDTSKSQFSLKLSSVTAADTAVYYCAREPPYYDFWNELSMGVGAFDIWGQGTMVTVSS
VL: DVLMTQIPLSLPVSLGDQASISCRSSQSIVQNNGNTFLEWFLQKPGQSPKLLIYRVSNRFSGVPDRFSGSGSGTDFTLKISRVEAEDLGVYYCFQGSHVPWTFGGGTKLEIK
Regarding B6, binding was put at a Kd of 9.89 nM.

B7: MPER18_d21_45.2_v55_21 (antibody, V domains shown)
VH: B6 VH with S33Y, S76N, A87T
VL: B6 VL with R24S
B7 showed a Kd of 2.21 nM.

B8: MPER18_d21_45.2_v55_m15_A04 (antibody, V domains shown)
VH: B6 VH with S33Y, S52F, K64R, D72G, S76N, S83N, N106S, E107G, V112M
VL: B6 VL with V2I, I7S, Q31H, N32S, T36S, F37Y, F41Y, R55K, V99I
B8 had a dissociation constant (Kd) of 14.1 nM.

B9: MPER18_d21_45.2_v55_m15_D07 (antibody, V domains shown)
VH: B6 VH with K13R, S33Y, S52Y, S76N, S83N, A96T, N106S, M110L
VL: B6 VL with V2I, L3V, I7S, S28T, Q31H, N32S, N35Y, F37Y, F41Y, R55K
Consider B9, for which the Kd turned out to be 2.79 nM.

B10: MPER18_d21_45.2_v55_m5_E10 (antibody, V domains shown)
VH: B6 VH with T23S, S31G, S33Y, S52F, S76N, S83T, N106S, E107G
VL: DIVMTQTPLSLPVSLGDQASISCSSSQNIVHSNGYTYLEWYLQKPGQSPKLLIYKVSNRFSGVPDRFSGSGSGTDFTLKISRVEAEDLGVYYCFQGSHVPYTFGGGTKLEIK
In turn, B10 registered a Kd of 0.571 nM.

B11: MPER18_d21_45.2_v55_m15_A06 (antibody, V domains shown)
VH: B6 VH with T21A, I29F, Y32S, S33Y, S52Y, I69M, S76N, N106S, E107G
VL: B6 VL with I7S, P12S, I29V, Q31H, N32S, F37Y, F41Y, K44Q, R55K
The molecule B11 came in with a Kd of 86.1 nM.

B12: MPER18_d21_45.2_v55_04 (antibody, V domains shown)
VH: QVQLQESGPGLVKPSETLSLTCTVSGDSISSYYWNWIRQPPGKGLEWIGYFYYYGSTNYNPSLKSRVTISVDTSKNQFSLNLSSVTAADTAVYYCAREPPYYDFWSGLSMGVDTFDIWGQGTMVTVSS
VL: DVVMTQTPLSLPVSLGDQASISCRSSQSLVHSNGNTYLHWYLQKPGQSPKLLIYKVSNRFSGVPDRFSGSGSGTDFTLKISRVEAEDLGVYFCSQSTHVPRTFGGGTKLEIK
In turn, B12 came in with a Kd of 563 nM.

B13: MPER18_d21_45.2_v55_22 (antibody, V domains shown)
VH: B6 VH with S33Y, S52Y, S76N, N106G, E107G, S109F
VL: B6 VL with I7T, Q31H, N32S, F41Y, K50N, F60L
B13 showed a Kd of 2.87 nM.

B14: MPER18_d21_45.2_v55_12 (antibody, V domains shown)
VH: B12 VH with K13T, G49E, F51M, Y52F, Y54S, N81K, D113G, T114A
VL: B10 VL with T7S, S24R, N28S, E39D, K44R
Molecule B14 yielded a Kd of 0.662 nM.

B15: MPER18_d21_45.2_v55_m15_E09 (antibody, V domains shown)
VH: B12 VH with D27G, S31N, N35S, Y54S, S56T, N81K, D113G, T114A
VL: B10 VL with I2V, V3L, S24R, N28S, H31Y, Y101W
As for B15, the affinity, expressed as Kd, was 14.8 nM. Against the preceding molecule, the Kd is about 22-fold higher.

B16: MPER18_d21_45.2_v55_17 (antibody, V domains shown)
VH: B6 VH with S33F, S52Y, Y53N, N60H, S76N, N106S, E107G
VL: B10 VL with I2V, V3L, S24R, N28S, N33S, Y35N, F67I, S68G, Y92F, Y101W
B16 returned a Kd of 13.2 nM.

B17: MPER18_d21_45.2_v55_24 (antibody, V domains shown)
VH: B6 VH with S33Y, S52Y, S76N, N106S, E107G, M123L
VL: B10 VL with I2V, V3L, M4L, T7S, S10A, S24R, N28S, I53V, A85T
B17 returned a Kd of 0.249 nM. This Kd lies about 53-fold lower than the previous one.

B18: MPER18_d21_45.2_v55_m15_C11 (antibody, V domains shown)
VH: B12 VH with D27G, F51I, Y52F, Y54S, S56T, N81K, L82V, S83R, D113G, T114S
VL: B10 VL with T7S, S24R, N28T, H31Y, N33S, Y92F, Y101W
With B18, binding was characterised by a dissociation constant (Kd) of 6.91 nM.

B19: MPER18_d21_45.2_v55_m5_D04 (antibody, V domains shown)
VH: B6 VH with S33Y, Y50H, S52Y, S65G, S76N, S83T, N106S, E107G
VL: B10 VL with I2V, V3L, S24R, N28S, L38V, S68T, E86A
In the case of B19, the dissociation constant (Kd) was determined as 0.714 nM.

B20: MPER18_d21_45.2_v55_m15_D04 (antibody, V domains shown)
VH: B6 VH with S31G, S33Y, S52Y, S76N, N106S, E107G, I117F
VL: B10 VL with I2V, V3L, T7S, S24R, N28S, Y35N, K79R, Y101C
B20 registered a Kd of 21.9 nM.

B21: MPER18_d21_45.2_v55_m15_C05 (antibody, V domains shown)
VH: B6 VH with S33C, P40S, S52Y, T57I, Y59H, V71A, S76N, N106S, E107G
VL: B12 VL with V2I, T7S, S32N, K44Q, K55N, V56F
B21 showed a Kd of 401 nM. Against the preceding molecule, the Kd is about 18-fold higher.

B22: MPER18_d21_45.1_v55_m3_C07 (antibody, V domains shown)
VH: QVQLKQSGPGLVQPSQSLSITCTVSGFSLTNYDIHWVRQSPGKGLEWLGVIWSGGSTDYNAGFISRLSISKDNSKSQVFFKMNSLQGDDTAIYYCARGGGYYEDYVMDYWGQGTSVTVSS
VL: DIQMTQSPASLSASVGETVTITCRASGNIHNYLAWYQQKQGESPHLLVYNAKTLADGVPSRFSGSDSGTQYSLKINSLQPEDFGSYYCQHFWTTPYTFGGGTKLEIK
In the case of B22, the dissociation constant (Kd) is 985 nM.

B23: MPER18_d21_45.1_v55_m3_D12 (antibody, V domains shown)
VH: QVQLQQSGAELMKPGASVILSCKATGYTFTGYWIEWVKLRPGHGLEWIGEILPGNSSTKYNEKFKGKATFTADTSSNTANMQLSSLTTEDSAIYYCARRWNDYDGVAWFGYWGQGTLVSVSA
VL: B22 VL with E42K, H45Q, N50S, D66G, T93S
The molecule B23 came in with a Kd of 1250 nM.

B24: MPER18_d21_45.1_v55_m3_D01 (antibody, V domains shown)
VH: B22 VH with I34V, E46A, G62T, S76T, G87A, V106A
VL: NIVLTQSPASLAVSLGQRATISCRASESVDTYGNSFMHWYQLKPGQPPKLLIYLASNLESGVPARFSGSGSRTDFTLTIDPVEADDAATYYCQQNNEDPYTFGGGTELEIQ
In the case of B24, the Kd amounted to 3.38 nM. This Kd is about 370-fold lower than that of the molecule before.

B25: MPER18_d21_45.1_v55_m3_F02 (antibody, V domains shown)
VH: QVQLKQSGPGLVQPSQSLSITCTVSGFSLTSNGVHWVRQSPGKGLDWLGVIWTGGSTDYNTTFLSRLSISKDNSKSQVFFKMNSLQADDTAIYYCARGGGYYEDYAMDYWGQGTSVTVSS
VL: B22 VL with E42K, H45Q, D66G, Y87C, T93S, K107R
B25 gave a dissociation constant (Kd) of 94.6 nM. This Kd lies about 28-fold higher than the previous one.

B26: NHP-10E8_MPER-GT10v55_W21-02 (antibody, V domains shown)
VH: EVQLVESGGGLVQPGGSLRLSCAASGFTFSNYWMSWVRQAPGKGLEWVGFIKNKADGGTAAYAESVKGRFTISRDDSKNTLYLQMNSLKTEDTAVYYCARAGAPYYNFWSGYYESYDAFDFWGQGLRVTVSS
VL: QPVLTQPTSLSASPGASARLTCTLRSGISVGSYRIFWYQQKPGSPPRYLLNYHTDSDKHQGSGVPSRFSGSKDASANAGILLISGLQSEDEADYYCMIWHNNAVLFGGGTRLTV
In turn, B26 showed a Kd of 4560 nM.

B27: NHP-10E8_MPER-GT10v55_W3-19 (antibody, V domains shown)
VH: EVQLVESGGGLVQPGGSLRLSCAASGFTFSNYWMSWVRQAPGKGLEWVGFIKNKADGGTAAYAESVKGRFSISRDDSKNTLYLQMNSLKTEDTAVYYCTRDVGRYNFWSGYYSHNRIDVWGPGVLVTVSS
VL: SYELTQPPSVSVSPGQMARITCGGDNLGSKYVHWFQQKPAQAPALVIYDDSDRPSGIPERFSGSKSGNTATLTISGVESGDEADYYCQVWDSGTDHPLFGGGTRLTV
The molecule B27 registered a Kd of 345 nM.

B28: MPER18_d21_45.1_v55_m3_B08 (antibody, V domains shown)
VH: QVQLQQPGAELVKPGASVKLSCKASGYTFTSYWMHWVKQRPGQGLEWIGMIRPNSGSTNYNERFKSKATLTVDKSSSTAYMQLSSLTSGDSAVYYCAKGGTWTMDYWGQGTSVTVSS
VL: DIVMTQSPSSLSVSAGEKVTMICKSSQSLLNSGNQKNYLAWYQQKPGQPPKLLIYGASTRESGVPDRFTGSGSGTDFTLTISSVQAEDLAVYYCQNDHSYPLTFGAGTKLELK
As for B28, the dissociation constant Kd amounted to 245 nM.
